According to patent US6468567B1, “Malt beverage having stabilized flavor and methods of production thereof” (Cerveceria Polar, C.A., priority 1997, dated 2002):

Columns and labels:
[1] = Substrate specificity assays of the purified reductase enzymes; assay type: biochemical; conditions: FIG. 10
Protocol: The activities of the isolated and purified oxoaldehyde reductase enzymes were determined in a mixture containing 9 mM methylglyoxal, 0.1 mM NADPH, 25 mM potassium phosphate buffer (pH 7.0), and the fraction enzyme (8 μg approximately) in a total volume of 0.5 ml. The reaction was monitored at 340 nm. All assays were performed at 25° C. One unit of the enzyme was defined as the amount of enzyme that the catalyzes the oxidation of 1 μmol of NADPH per minute at 25° C.
Various carbonyl compounds were assayed as substrates for the isolated and purified reductase enzymes.

[2] = Effect of the reductases on the LC18 peak in fresh beer (HPLC); assay type: biochemical; conditions: 50 units/ml enzyme, 25° C., 30 minutes, FIG. 11
Protocol: Analysis of the chemical indices LC18 and 5-HMF was performed by liquid chromatography, using a Waters HPLC system which consisted of a 600 pump, Wisp 717 autosampler, Millennium 2010 Chromatography Manager v 2.1. Separation was carried out in an Aminex HPX-87H column 300×7.8 mm, 9 μm held at 55° C. Elution was monitored with a Waters 991 Photodiode Array Detector (200 nm-300 nm) and the quantitation of 5-HMF and LC18 peak was carried out at 283 nm. For analysis, 50 μl of degassed beer was injected in duplicate samples and eluted with 0.05 M H2SO4 over 25 min at a flow rate of 1.0 ml/min. Quantitation of 5-HMF was performed using an external calibration curve of the respective pure compounds (Sigma; Saint Louis, Mo.).
In order to determine the effect of both reductases on the intensity of the LC18 peak, a 1 ml mixture of fresh beer, 25 mM potassium phosphate buffer (pH 7.0), 0.1 mM NADPH and the required volume of enzyme to obtain a final concentration in the solution of 50 units/ml of enzyme was incubated at 25° C. for 30 minutes. After the incubation, the treated beer was analyzed on an Aminex HPX-87H column connected to a Waters HPLC System under the conditions described above.

B1: Reductase 1: NADPH-dependent oxidoreductase purified from brewer's yeast; first 30 residues show 100% homology to Old Yellow Enzyme isozyme OYE2 (protein, UniProt Q03558 2-400, looked up)
NADPH dehydrogenase 2: PFVKDFKPQALGDTNLFKPIKIGNNELLHRAVIPPLTRMRAQHPGNIPNRDWAVEYYAQRAQRPGTLIITEGTFPSPQSGGYDNAPGIWSEEQIKEWTKIFKAIHENKSFAWVQLWVLGWAAFPDTLARDGLRYDSASDNVYMNAEQEEKAKKANNPQHSITKDEIKQYVKEYVQAAKNSIAAGADGVEIHSANGYLLNQFLDPHSNNRTDEYGGSIENRARFTLEVVDAVVDAIGPEKVGLRLSPYGVFNSMSGGAETGIVAQYAYVLGELERRAKAGKRLAFVHLVEPRVTNPFLTEGEGEYNGGSNKFAYSIWKGPIIRAGNFALHPEVVREEVKDPRTLIGYGRFFISNPDLVDRLEKGLPLNKYDRDTFYKMSAEGYIDYPTYEEALKLGWDKN
For B1, the activity on pyruvate [1] was “neither enzyme showed any appreciable activity”, the “effect on the assayed aldoses (glucose, galactose and xylose)” value [1] was “little or no effect” and the metyrapone as substrate [1] was “acceptable substrate”. For the same molecule, the “activity on compounds with a single keto or aldo group such as acetaldehyde and pyridine-3-aldehyde” value ([1]; comparison of Reductase 1 with Reductase 2) was “higher activity than Reductase 2”, the “activity on 2-oxoaldehydes such as methylglyoxal and 3-deoxyglucosone” value ([1]; substrates methylglyoxal, 3-deoxyglucosone) was “acted on” and the “change in the area of the LC18 peak” value ([2]; 0.1 mM NADPH, relative to untreated control beer) was “significant decrease”. For the same molecule, the “decrease in the LC18 peak compared with Reductase 2” value [2] was “larger decrease”.
